Assay results taken from US20110046075A1 (published 2011).

Columns and labels:
[1] = target: T1, Native complement component C3, purified from human plasma (human, UniProt P01024 23-1663, intact thioester (native form)); assay: cell-based or functional assay
[2] = target: T2, Fibrinogen (Fg) from human serum (human, UniProt P02671 20-644; P02675 31-491; P02679 27-437); assay: pull-down from human serum on derivatized sepharose, SDS-PAGE and LC-MS/MS
T2 construct: The three-chain make-up is from general knowledge; also called Fg species
T2 sequence 1: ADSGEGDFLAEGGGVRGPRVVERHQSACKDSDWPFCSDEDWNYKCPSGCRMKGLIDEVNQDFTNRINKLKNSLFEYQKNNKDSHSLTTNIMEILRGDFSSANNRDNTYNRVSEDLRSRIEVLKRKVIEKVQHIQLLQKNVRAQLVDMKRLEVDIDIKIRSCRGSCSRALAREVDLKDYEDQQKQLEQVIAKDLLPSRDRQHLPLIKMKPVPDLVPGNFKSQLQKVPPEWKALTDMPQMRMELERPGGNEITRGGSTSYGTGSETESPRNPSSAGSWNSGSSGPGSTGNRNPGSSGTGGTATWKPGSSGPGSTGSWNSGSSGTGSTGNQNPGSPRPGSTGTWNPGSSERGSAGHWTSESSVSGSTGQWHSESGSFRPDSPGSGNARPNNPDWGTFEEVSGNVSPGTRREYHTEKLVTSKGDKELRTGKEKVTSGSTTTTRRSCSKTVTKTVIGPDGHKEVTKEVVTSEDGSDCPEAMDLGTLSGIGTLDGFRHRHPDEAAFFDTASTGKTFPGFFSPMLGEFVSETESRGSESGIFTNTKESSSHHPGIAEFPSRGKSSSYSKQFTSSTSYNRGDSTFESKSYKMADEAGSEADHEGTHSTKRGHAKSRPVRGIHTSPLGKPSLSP
T2 sequence 2: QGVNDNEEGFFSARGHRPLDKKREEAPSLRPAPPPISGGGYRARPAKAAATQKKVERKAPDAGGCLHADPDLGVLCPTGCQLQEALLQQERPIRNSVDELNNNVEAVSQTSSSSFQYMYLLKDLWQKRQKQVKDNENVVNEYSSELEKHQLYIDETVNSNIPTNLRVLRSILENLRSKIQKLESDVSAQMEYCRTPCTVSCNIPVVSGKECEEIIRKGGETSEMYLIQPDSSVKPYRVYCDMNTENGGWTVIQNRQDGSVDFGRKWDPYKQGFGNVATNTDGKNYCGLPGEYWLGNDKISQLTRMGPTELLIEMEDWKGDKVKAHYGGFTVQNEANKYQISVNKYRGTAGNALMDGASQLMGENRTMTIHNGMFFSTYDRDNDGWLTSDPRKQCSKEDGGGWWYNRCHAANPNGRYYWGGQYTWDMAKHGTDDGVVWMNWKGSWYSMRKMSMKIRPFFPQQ
T2 sequence 3: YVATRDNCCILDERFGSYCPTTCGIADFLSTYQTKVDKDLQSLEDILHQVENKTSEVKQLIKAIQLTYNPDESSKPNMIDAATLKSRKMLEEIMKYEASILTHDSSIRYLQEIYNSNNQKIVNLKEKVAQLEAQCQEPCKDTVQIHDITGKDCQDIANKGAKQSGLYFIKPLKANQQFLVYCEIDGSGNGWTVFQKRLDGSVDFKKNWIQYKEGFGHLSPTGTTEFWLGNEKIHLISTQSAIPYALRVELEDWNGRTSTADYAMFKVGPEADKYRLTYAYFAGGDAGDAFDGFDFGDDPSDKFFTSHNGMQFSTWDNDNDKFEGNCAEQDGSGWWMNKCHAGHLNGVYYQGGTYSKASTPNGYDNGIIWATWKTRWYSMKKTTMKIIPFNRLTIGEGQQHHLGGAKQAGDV

Hydrolyzed C3 (C3(H2O)) [3] = target: T3, Hydrolyzed C3 (C3(H2O)) (human, UniProt P01024 23-1663, thioester hydrolyzed); assay: SPR kinetics, Efb-C immobilized
T3 construct: mature; Prepared according to established protocols

C3b [4] = target: T4, C3b (human, UniProt P01024 23-667; P01024 749-1663, limits assumed); assay: SPR kinetics, Efb-C immobilized
T4 construct: domain: C3b; Prepared according to established protocols

C3c = target: T5, C3c (human, UniProt P01024 23-667; P01024 749-954; P01024 1321-1663); assay: SPR, Efb-C immobilized, C3c injected, response divided by MW
T5 construct: domain: C3c; Prepared according to established protocols; also called C3c fragment

C3b [5] = target: T4, C3b; assay: SPR (Biacore 2000), Efb-C immobilized, C3b as analyte, 1:1 Langmuir model
Procedure: (§1) Surface Plasmon Resonance of Efb Binding to Components of the Complement System. All SPR experiments were performed on a Biacore X (ranking) or Biacore 2000 (kinetic profiling) biosensor at 25° C. using 10 mM PBS-T (10 mM sodium phosphate, pH 7.4, 150 mM NaCl, 0.005% Tween-20) as running buffer. […] A separate flow cell was only activated and deactivated, and served as reference surface. 200 nM solutions of the C3 fragments were injected for 3 min at a flow rate of 20 μl/min with a dissociation phase of 3 min. The Efb-C surface was regenerated with two consecutive 30 s pulses of 0.1% SDS and re-equilibrated in running buffer for 10 min. For the kinetic SPR studies, Efb-C was immobilized at lower density (200 RU) and the flow rate was kept at 30 μl/ml in order to avoid mass transport effects. C3 fragments were screened as threefold dilution series (67-0.09 nM; 200-0.09 nM for C3b) in running buffer with injection and dissociation phases of 5 and 10 min, respectively. In order to ensure full reconstitution of the surface after regeneration, the equilibration phase was increased to 30 min. Three buffer blanks were included in each analysis and their average signals were subtracted from the processed sample responses (double referencing). […] The equilibrium dissociation constant (Kd) was calculated from the kinetic parameters as Kd=koff/kₒₙ. […]

[6] = target: T6, Recombinant C3dg (E. coli, pET30 vector with S-tag) (human, UniProt P01024 955-1303); assay: SPR (Biacore 2000), Efb-C immobilized, C3dg as analyte, 1:1 Langmuir model
T6 construct: domain: C3dg; not shown: S-tag from the pET30 vector

Hydrolyzed C3 (C3(H2O)) [7] = target: T3, Hydrolyzed C3 (C3(H2O)); assay: SPR (Biacore 2000), Efb-C immobilized, C3(H2O) as analyte, 1:1 Langmuir model
Procedure: as §1

C3b [8] = target: T4, C3b; assay: SPR (Biacore 2000), Efb-C immobilized, C3b as analyte, 1:1 Langmuir model; Kd=koff/kon
[9] = target: T6, Recombinant C3dg (E. coli, pET30 vector …); assay: SPR (Biacore 2000), Efb-C immobilized, C3dg as analyte, 1:1 Langmuir model; Kd=koff/kon
Hydrolyzed C3 (C3(H2O)) [10] = target: T3, Hydrolyzed C3 (C3(H2O)); assay: SPR (Biacore 2000), Efb-C immobilized, C3(H2O) as analyte, 1:1 Langmuir model; Kd=koff/kon
[11] = target: T1, Native complement component C3, …; assay: SPR (Biacore 2000), Efb-C immobilized, native C3 as analyte, surface heterogeneity model, primary site; Kd=koff/kon
[12] = target: T1, Native complement component C3, …; assay: SPR (Biacore 2000), Efb-C immobilized, native C3 as analyte, surface heterogeneity model, primary site (~90% of the total binding)

T6 sequence (P01024 955-1303): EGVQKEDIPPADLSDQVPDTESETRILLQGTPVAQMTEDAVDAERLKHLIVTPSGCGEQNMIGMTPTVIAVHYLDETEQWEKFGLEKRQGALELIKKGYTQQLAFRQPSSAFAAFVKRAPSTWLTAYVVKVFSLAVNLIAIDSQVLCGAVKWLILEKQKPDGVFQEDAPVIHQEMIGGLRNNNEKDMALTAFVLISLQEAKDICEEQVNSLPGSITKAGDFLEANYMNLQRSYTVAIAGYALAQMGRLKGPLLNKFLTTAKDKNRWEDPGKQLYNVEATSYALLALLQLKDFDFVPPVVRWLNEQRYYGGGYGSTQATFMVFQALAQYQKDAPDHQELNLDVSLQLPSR
T3 sequence (P01024 23-1663): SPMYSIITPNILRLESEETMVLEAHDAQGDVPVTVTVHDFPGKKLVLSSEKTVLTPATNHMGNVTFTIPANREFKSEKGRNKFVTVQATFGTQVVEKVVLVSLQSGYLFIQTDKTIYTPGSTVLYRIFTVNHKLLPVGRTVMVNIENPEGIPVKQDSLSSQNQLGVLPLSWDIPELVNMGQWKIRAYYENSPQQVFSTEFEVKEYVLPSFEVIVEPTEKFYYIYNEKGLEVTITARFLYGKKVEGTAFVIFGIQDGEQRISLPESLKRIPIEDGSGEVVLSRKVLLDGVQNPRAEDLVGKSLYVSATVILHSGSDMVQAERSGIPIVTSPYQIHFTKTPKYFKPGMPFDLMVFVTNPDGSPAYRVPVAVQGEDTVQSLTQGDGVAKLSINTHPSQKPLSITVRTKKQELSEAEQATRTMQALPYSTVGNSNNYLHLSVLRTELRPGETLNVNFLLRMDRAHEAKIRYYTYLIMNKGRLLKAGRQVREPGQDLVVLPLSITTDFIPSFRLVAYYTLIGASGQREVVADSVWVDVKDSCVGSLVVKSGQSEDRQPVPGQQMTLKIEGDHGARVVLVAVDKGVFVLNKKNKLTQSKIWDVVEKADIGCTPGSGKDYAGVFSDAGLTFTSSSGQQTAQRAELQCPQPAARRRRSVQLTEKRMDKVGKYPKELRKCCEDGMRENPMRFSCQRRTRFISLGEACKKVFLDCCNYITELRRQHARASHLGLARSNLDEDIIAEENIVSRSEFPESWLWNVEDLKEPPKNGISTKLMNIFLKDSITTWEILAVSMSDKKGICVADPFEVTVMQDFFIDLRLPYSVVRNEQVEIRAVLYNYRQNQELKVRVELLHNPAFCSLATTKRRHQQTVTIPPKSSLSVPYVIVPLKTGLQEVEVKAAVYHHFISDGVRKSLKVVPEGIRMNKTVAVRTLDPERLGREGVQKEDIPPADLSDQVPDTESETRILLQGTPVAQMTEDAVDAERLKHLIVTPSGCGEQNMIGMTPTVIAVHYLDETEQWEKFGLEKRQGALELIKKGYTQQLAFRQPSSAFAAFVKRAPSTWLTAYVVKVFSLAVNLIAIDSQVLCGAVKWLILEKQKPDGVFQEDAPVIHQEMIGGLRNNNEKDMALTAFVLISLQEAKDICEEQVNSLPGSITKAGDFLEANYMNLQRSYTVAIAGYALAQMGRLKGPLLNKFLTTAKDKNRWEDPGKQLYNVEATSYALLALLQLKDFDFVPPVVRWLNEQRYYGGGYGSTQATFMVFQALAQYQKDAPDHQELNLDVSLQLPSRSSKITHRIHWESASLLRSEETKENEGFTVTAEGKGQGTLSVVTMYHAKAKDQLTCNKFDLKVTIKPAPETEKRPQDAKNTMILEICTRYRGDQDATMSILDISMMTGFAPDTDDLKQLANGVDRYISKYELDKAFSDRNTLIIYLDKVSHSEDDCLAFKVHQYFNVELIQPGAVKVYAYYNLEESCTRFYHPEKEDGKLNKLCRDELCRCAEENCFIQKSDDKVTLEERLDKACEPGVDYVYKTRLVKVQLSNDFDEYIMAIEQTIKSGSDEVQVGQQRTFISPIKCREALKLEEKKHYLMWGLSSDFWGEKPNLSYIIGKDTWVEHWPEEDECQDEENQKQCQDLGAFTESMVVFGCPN
T1 sequence (P01024 23-1663): as above
T4 sequence (P01024 23-667 limits assumed, chain 1 of 2): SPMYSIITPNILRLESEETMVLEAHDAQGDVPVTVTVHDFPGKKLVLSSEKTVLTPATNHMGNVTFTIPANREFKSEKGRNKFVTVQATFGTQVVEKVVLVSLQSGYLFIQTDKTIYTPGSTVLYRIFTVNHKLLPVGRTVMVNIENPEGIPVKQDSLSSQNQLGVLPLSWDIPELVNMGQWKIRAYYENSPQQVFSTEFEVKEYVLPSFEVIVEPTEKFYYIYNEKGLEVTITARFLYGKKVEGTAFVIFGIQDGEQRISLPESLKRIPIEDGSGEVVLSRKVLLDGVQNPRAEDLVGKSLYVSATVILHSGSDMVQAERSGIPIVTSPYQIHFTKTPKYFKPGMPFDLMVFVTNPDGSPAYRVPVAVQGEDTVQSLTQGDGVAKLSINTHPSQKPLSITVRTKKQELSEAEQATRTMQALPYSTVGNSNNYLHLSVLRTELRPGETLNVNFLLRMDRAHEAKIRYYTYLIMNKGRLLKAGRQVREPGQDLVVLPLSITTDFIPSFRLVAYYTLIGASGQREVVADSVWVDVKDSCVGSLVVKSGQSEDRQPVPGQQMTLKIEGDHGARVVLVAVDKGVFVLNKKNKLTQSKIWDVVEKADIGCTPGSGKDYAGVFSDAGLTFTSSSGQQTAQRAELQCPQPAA
T4 sequence (P01024 749-1663 limits assumed, chain 2 of 2): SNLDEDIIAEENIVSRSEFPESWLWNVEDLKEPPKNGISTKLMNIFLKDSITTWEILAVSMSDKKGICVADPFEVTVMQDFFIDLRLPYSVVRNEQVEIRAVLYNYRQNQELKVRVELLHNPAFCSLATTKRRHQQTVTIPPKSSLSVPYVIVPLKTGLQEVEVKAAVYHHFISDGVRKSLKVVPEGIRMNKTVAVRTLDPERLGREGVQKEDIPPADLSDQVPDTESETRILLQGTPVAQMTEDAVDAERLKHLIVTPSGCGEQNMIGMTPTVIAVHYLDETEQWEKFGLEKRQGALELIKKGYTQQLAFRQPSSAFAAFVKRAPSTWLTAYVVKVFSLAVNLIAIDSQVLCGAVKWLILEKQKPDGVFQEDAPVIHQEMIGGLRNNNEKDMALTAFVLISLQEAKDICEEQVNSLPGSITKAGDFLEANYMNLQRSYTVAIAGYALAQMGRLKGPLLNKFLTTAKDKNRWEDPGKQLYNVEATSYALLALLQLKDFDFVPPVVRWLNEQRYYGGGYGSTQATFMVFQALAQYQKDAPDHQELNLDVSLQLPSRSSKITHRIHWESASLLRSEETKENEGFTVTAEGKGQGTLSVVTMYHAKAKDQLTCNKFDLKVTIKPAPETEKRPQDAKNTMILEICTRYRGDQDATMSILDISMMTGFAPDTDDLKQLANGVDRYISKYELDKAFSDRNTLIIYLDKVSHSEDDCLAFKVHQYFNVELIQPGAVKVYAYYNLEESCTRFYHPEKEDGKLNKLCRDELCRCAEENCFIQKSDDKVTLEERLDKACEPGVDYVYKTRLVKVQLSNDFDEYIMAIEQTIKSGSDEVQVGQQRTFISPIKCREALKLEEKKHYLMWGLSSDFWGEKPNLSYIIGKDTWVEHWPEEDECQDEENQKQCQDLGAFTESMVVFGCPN
T5 sequence (P01024 23-667 limits assumed, chain 1 of 3): as the sequence (P01024 23-667 limits assumed, chain 1 of 2) above
T5 sequence (P01024 749-954 limits assumed, chain 2 of 3): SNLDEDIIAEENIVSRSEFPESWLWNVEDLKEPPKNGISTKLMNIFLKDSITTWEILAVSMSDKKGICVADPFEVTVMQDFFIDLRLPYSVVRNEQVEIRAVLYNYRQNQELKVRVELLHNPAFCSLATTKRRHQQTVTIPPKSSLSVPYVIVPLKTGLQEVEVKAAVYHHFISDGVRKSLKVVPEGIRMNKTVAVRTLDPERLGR
T5 sequence (P01024 1321-1663 limits assumed, chain 3 of 3): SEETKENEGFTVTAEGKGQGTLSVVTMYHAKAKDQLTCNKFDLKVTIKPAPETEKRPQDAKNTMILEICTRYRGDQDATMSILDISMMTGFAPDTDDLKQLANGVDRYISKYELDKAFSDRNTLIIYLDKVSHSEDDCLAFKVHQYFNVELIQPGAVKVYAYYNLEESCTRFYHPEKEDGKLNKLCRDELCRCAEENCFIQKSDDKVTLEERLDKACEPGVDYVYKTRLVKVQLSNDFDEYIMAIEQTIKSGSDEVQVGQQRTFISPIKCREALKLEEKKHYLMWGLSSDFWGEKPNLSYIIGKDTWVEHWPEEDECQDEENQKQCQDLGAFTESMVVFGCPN

B1: Extracellular fibrinogen-binding protein (Efb), recombinant full-length, S. aureus strain Mu50 (other)
chain: ASEGYGPREKKPVSINHNIVEYNDGTFKYQSRPKFNSTPKYIKFKHDYNILEFNDGTFEYGARPQFNKPAAKTDATIKKEQKLIQAQNLVREFEKTHTVSAHRKAQKAVNLVSFEYKVKKMVLQERIDNVLKQGLVR
**Q.** Which “IC50, inhibition of the alternative pathway of complement activation (ELISA of C3b deposition, human serum)” value [1] does the source give for B1 here?
**A.** The value was roughly 560 nM.

**Q.** And the “molar excess over C3 needed to reach an IC50 concentration, classical pathway” value [1]?
**A.** Its value is 50 fold molar excess over C3.

B2: SAV1155/Ehp (Efb Homologous Protein), recombinant mature form, S. aureus strain Mu50 (other)
chain: QTKNVEAAKKYDQYQTNFKKQVNKKVVDAQKAVNLFKRTRTVATHRKAQRAVNLIHFQHSYEKKKLQRQIDLVLKYNTLK
notes: A recombinant form corresponding to the predicted mature protein
**Q.** What does the source list for B2?
**A.** IC50, inhibition of classical activation of the complement pathway (ELISA detecting fixed C3b to Ag-Ab complex) [1]: 590 nM; classical pathway inhibition relative to Efb, on a molar basis [1]: ~2 fold; classical pathway inhibition relative to Efb-C, on a molar basis [1]: ~50 fold; binding result [2]: no binding (tested: 1:100 dilution of human serum)

B3: Efb-C, C-terminal C3-binding domain of Efb from S. aureus strain Mu50 (other)
chain: FNKPAAKTDATIKKEQKLIQAQNLVREFEKTHTVSAHRKAQKAVNLVSFEYKVKKMVLQERIDNVLKQGLVR
notes: Monomer in solution; also called wild-type Efb-C
**Q.** What does the source list for B3?
**A.** IC50, inhibition of the alternative pathway of complement activation (ELISA of C3b deposition, human serum) [1]: ~410 nM; dissociation rate relative to that of native C3 (Hydrolyzed C3 (C3(H2O)) [3]): > 70 % greater; fold decrease in affinity compared to native C3 and C3(H2O) (C3b [4]): ~3 fold; fold difference in affinity to C3dg (C3b [4]): ~10 fold; binding result (C3c): no binding (tested: 200 nM); binding result [2]: no binding (tested: 1:100 dilution of human serum); koff (C3b [5]): 0.000209 s⁻¹; kon (C3b [5]): 23900 M⁻¹ s⁻¹; koff [6]: 0.000218 s⁻¹; kon [6]: 284000 M⁻¹ s⁻¹; koff (Hydrolyzed C3 (C3(H2O)) [7]): 0.000169 s⁻¹; kon (Hydrolyzed C3 (C3(H2O)) [7]): 88900 M⁻¹ s⁻¹; Kd (C3b [8]): 8.8 nM; Kd [9]: 0.8 nM; Kd (Hydrolyzed C3 (C3(H2O)) [10]): 1.9 nM; Kd [11]: 2.8 nM; koff [12]: 9.9e-05 s⁻¹; kon [12]: 36000 M⁻¹ s⁻¹
